In US20240132485A1, “HETEROCYCLIC CULLIN RING UBIQUITIN LIGASE COMPOUNDS AND USES THEREOF” (CEMM - FORSCHUNGSZENTRUM FÜR MOLEKULARE MEDIZIN GMBH, priority 2020, published 2024):

How the values were obtained:
[1] = biological target: Nanoluc_DDB1 (N-terminal Nanoluc luciferase, G4S linker, DDB1 (FL)) (UniProt Q16531); assay: NanoBRET in HEK293T cells, 10 µM compound Example 3-1; class B = 3-4 fold increase
[2] = biological target: Nanoluc_DDB1 (N-terminal Nanoluc luciferase, G4S linker, DDB1 (FL)) (UniProt Q16531); assay: NanoBRET in HEK293T cells, 10 µM compound Example 3-2; class B = 3-4 fold increase
[3] = biological target: Nanoluc_DDB1 (N-terminal Nanoluc luciferase, G4S linker, DDB1 (FL)) (UniProt Q16531); assay: NanoBRET in HEK293T cells, 10 µM compound Example 3-5; class B = 3-4 fold increase
[4] = biological target: Nanoluc_DDB1 (N-terminal Nanoluc luciferase, G4S linker, DDB1 (FL)) (UniProt Q16531); assay: NanoBRET in HEK293T cells, 10 µM compound Example 3-6; class C = 2-3 fold increase
[5] = biological target: Nanoluc_DDB1 (N-terminal Nanoluc luciferase, G4S linker, DDB1 (FL)) (UniProt Q16531); assay: NanoBRET in HEK293T cells, 10 µM compound Example 3-10; class C = 2-3 fold increase
[6] = biological target: Nanoluc_DDB1 (N-terminal Nanoluc luciferase, G4S linker, DDB1 (FL)) (UniProt Q16531); assay: NanoBRET in HEK293T cells, 10 µM compound Example 3-13; class B = 3-4 fold increase
[7] = biological target: Nanoluc_DDB1 (N-terminal Nanoluc luciferase, G4S linker, DDB1 (FL)) (UniProt Q16531); assay: NanoBRET in HEK293T cells, 10 µM compound Example 3-18; class C = 2-3 fold increase
[8] = biological target: Nanoluc_DDB1 (N-terminal Nanoluc luciferase, G4S linker, DDB1 (FL)) (UniProt Q16531); assay: NanoBRET in HEK293T cells, 10 µM compound Example 3-21; class B = 3-4 fold increase
[9] = biological target: Nanoluc_DDB1 (N-terminal Nanoluc luciferase, G4S linker, DDB1 (FL)) (UniProt Q16531); assay: NanoBRET in HEK293T cells, 10 µM compound Example 3-22; class B = 3-4 fold increase
[10] = biological target: Nanoluc_DDB1 (N-terminal Nanoluc luciferase, G4S linker, DDB1 (FL)) (UniProt Q16531); assay: NanoBRET in HEK293T cells, 10 µM compound Example 3-23; class B = 3-4 fold increase
[11] = biological target: Nanoluc_DDB1 (N-terminal Nanoluc luciferase, G4S linker, DDB1 (FL)) (UniProt Q16531); assay: NanoBRET in HEK293T cells, 10 µM compound Example 3-26; class C = 2-3 fold increase
[12] = biological target: Nanoluc_DDB1 (N-terminal Nanoluc luciferase, G4S linker, DDB1 (FL)) (UniProt Q16531); assay: NanoBRET in HEK293T cells, 10 µM compound Example 3-31; class C = 2-3 fold increase
[13] = biological target: Nanoluc_DDB1 (N-terminal Nanoluc luciferase, G4S linker, DDB1 (FL)) (UniProt Q16531); assay: NanoBRET in HEK293T cells, 10 µM compound Example 3-32; class B = 3-4 fold increase
[14] = biological target: Nanoluc_DDB1 (N-terminal Nanoluc luciferase, G4S linker, DDB1 (FL)) (UniProt Q16531); assay: NanoBRET in HEK293T cells, 10 µM compound Example 3-41; class C = 2-3 fold increase
[15] = biological target: Nanoluc_DDB1 (N-terminal Nanoluc luciferase, G4S linker, DDB1 (FL)) (UniProt Q16531); assay: NanoBRET in HEK293T cells, 10 µM compound Example 3-53; class B = 3-4 fold increase
[16] = biological target: Nanoluc_DDB1 (N-terminal Nanoluc luciferase, G4S linker, DDB1 (FL)) (UniProt Q16531); assay: NanoBRET in HEK293T cells, 10 µM compound Example 3-57; class B = 3-4 fold increase
[17] = biological target: Nanoluc_DDB1 (N-terminal Nanoluc luciferase, G4S linker, DDB1 (FL)) (UniProt Q16531); assay: NanoBRET in HEK293T cells, 10 µM compound Example 3-59; class C = 2-3 fold increase
[18] = biological target: Nanoluc_DDB1 (N-terminal Nanoluc luciferase, G4S linker, DDB1 (FL)) (UniProt Q16531); assay: NanoBRET in HEK293T cells, 10 µM compound Example 3-63; class B = 3-4 fold increase
[19] = biological target: Nanoluc_DDB1 (N-terminal Nanoluc luciferase, G4S linker, DDB1 (FL)) (UniProt Q16531); assay: NanoBRET in HEK293T cells, 10-point titration of compound Example 3-22; class E = >10 µM
[20] = biological target: Nanoluc_DDB1 (N-terminal Nanoluc luciferase, G4S linker, DDB1 (FL)) (UniProt Q16531); assay: NanoBRET in HEK293T cells, 10 µM compound Example 3-4; class A = greater than 4-fold increase
[21] = biological target: Nanoluc_DDB1 (N-terminal Nanoluc luciferase, G4S linker, DDB1 (FL)) (UniProt Q16531); assay: NanoBRET in HEK293T cells, 10 µM compound Example 3-14; class A = greater than 4-fold increase
[22] = biological target: Nanoluc_DDB1 (N-terminal Nanoluc luciferase, G4S linker, DDB1 (FL)) (UniProt Q16531); assay: NanoBRET in HEK293T cells, 10 µM compound Example 3-35; class A = greater than 4-fold increase
[23] = biological target: Nanoluc_DDB1 (N-terminal Nanoluc luciferase, G4S linker, DDB1 (FL)) (UniProt Q16531); assay: NanoBRET in HEK293T cells, 10 µM compound Example 3-44; class A = greater than 4-fold increase
[24] = biological target: Nanoluc_DDB1 (N-terminal Nanoluc luciferase, G4S linker, DDB1 (FL)) (UniProt Q16531); assay: NanoBRET in HEK293T cells, 10 µM compound Example 3-66; class A = greater than 4-fold increase
[25] = biological target: Nanoluc_DDB1 (N-terminal Nanoluc luciferase, G4S linker, DDB1 (FL)) (UniProt Q16531); assay: NanoBRET in HEK293T cells, 10-point titration of compound Example 3-9; class A = EC50<=0.25 µM
[26] = biological target: Nanoluc_DDB1 (N-terminal Nanoluc luciferase, G4S linker, DDB1 (FL)) (UniProt Q16531); assay: NanoBRET in HEK293T cells, 10-point titration of compound Example 3-14; class A = EC50<=0.25 µM

Nanoluc_DDB1 (N-terminal Nanoluc luciferase, G4S linker, DDB1 (FL)), sequence (Q16531 other isoform, or with tags, fused parts or gaps): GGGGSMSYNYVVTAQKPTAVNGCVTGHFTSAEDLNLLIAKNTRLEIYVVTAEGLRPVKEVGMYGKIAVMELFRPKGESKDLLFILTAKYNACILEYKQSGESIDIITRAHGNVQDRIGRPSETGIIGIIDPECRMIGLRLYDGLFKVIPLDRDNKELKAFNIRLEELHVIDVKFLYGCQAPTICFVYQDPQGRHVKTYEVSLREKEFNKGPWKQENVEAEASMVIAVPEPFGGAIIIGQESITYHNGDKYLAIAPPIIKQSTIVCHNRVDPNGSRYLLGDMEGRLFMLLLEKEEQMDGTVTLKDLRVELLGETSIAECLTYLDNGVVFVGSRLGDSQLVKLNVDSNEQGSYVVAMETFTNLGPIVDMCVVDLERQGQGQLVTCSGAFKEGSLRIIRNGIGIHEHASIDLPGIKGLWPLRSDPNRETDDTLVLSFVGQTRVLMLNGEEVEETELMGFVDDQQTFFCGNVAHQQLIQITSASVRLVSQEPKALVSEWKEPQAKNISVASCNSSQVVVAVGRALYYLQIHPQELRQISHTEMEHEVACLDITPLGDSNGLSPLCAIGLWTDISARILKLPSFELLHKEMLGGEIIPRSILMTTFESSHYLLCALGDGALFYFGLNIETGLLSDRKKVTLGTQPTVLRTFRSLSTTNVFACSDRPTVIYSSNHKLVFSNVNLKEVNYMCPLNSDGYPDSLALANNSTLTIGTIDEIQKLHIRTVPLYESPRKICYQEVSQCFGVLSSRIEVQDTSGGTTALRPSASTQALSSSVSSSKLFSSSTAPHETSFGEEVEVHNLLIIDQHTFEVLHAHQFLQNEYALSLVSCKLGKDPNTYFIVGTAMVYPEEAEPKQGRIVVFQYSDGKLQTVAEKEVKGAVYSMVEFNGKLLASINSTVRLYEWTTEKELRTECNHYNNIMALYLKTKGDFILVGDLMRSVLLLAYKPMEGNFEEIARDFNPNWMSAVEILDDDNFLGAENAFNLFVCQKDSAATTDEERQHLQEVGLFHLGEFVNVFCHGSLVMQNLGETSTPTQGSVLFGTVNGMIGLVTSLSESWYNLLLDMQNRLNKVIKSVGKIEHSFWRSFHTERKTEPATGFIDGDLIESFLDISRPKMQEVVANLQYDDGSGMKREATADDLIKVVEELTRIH

Question: With “HaloTag_CDK12 (N-terminal HaloTag, G4S linker, CDK12 (713-1052)) (from UniProt Q9NYV4 713-1052) (enzyme)” as the substance, how does the NanoBRET fold increase [1] read?
Answer: The NanoBRET fold increase was 3 to 4 fold.

Question: And the NanoBRET fold increase [2]?
Answer: The NanoBRET fold increase was 3 to 4 fold.

Question: And the NanoBRET fold increase [3]?
Answer: Its NanoBRET fold increase is 3 to 4 fold.

Question: And the NanoBRET fold increase [4]?
Answer: Its NanoBRET fold increase is 2 to 3 fold.

Question: And the NanoBRET fold increase [5]?
Answer: The NanoBRET fold increase was 2 to 3 fold.

Question: What about the NanoBRET fold increase [6] of the same substance?
Answer: Its NanoBRET fold increase is 3 to 4 fold.

Question: And the NanoBRET fold increase [7]?
Answer: The NanoBRET fold increase was 2 to 3 fold.

Question: And the NanoBRET fold increase [8]?
Answer: The NanoBRET fold increase was 3 to 4 fold.

Question: And the NanoBRET fold increase [9]?
Answer: Its NanoBRET fold increase is 3 to 4 fold.

Question: What about the NanoBRET fold increase [10] of the same substance?
Answer: The NanoBRET fold increase was 3 to 4 fold.

Question: And the NanoBRET fold increase [11]?
Answer: The NanoBRET fold increase was 2 to 3 fold.

Question: And the NanoBRET fold increase [12]?
Answer: The NanoBRET fold increase was 2 to 3 fold.

Question: What about the NanoBRET fold increase [13] of the same substance?
Answer: Its NanoBRET fold increase is 3 to 4 fold.

Question: What about the NanoBRET fold increase [14] of the same substance?
Answer: The NanoBRET fold increase was 2 to 3 fold.

Question: What about the NanoBRET fold increase [15] of the same substance?
Answer: Its NanoBRET fold increase is 3 to 4 fold.

Question: What about the NanoBRET fold increase [16] of the same substance?
Answer: Its NanoBRET fold increase is 3 to 4 fold.

Question: What about the NanoBRET fold increase [17] of the same substance?
Answer: Its NanoBRET fold increase is 2 to 3 fold.

Question: What about the NanoBRET fold increase [18] of the same substance?
Answer: The NanoBRET fold increase was 3 to 4 fold.

Question: And the EC50 [19]?
Answer: The EC50 was over 10000 nM.

Question: What about the NanoBRET fold increase [20] of the same substance?
Answer: The NanoBRET fold increase was over 4 fold.

Question: And the NanoBRET fold increase [21]?
Answer: Its NanoBRET fold increase is over 4 fold.

Question: And the NanoBRET fold increase [22]?
Answer: Its NanoBRET fold increase is over 4 fold.

Question: What about the NanoBRET fold increase [23] of the same substance?
Answer: The NanoBRET fold increase was over 4 fold.

Question: What about the NanoBRET fold increase [24] of the same substance?
Answer: The NanoBRET fold increase was over 4 fold.

Question: And the EC50 [25]?
Answer: The EC50 was under 250 nM.

Question: What about the EC50 [26] of the same substance?
Answer: The EC50 was under 250 nM.
